Test [1] addresses soluble recombinant HLA-DR4 (HLA-DRβ1*04:01) (human). The test can be described thus: dissociation kinetics (LB3.1 capture, europium-streptavidin time-resolved fluorescence).
Test [2] shares this target. The experiment in a line: ELISA.
The target is the same in test [3]. The test can be described thus: ELISA; apparent Kd; direct binding of biotin-labeled peptide to DR4 as in the DR-ELISA (72 h), binding reactions set up with 1 µM HLA-DM.

Where no end group is shown, it is not given here.

Results on 2 molecules are retold here after paper PMC4077652, “An Unstable Th Epitope of P. falciparum Fosters Central Memory T Cells and Anti-CS Antibody Responses” (PLoS ONE, 2014).

QNSYSTEWSPCSVT (not fully specified (N-terminus)) [biotin-labeled QNT-Y peptide (QNT-5 analogue L335Y)]: in test [1], the half-life came out at 138 h and the half-life with HLA-DM was determined as 43.1 h. Further, in test [2], the Kd is 25.5 nM. Further, the Kd in test [3] amounted to 35.7 nM.

As for QNSLSTEWSPCSVT (not fully specified (N-terminus)) [biotin-labeled QNT-5 332-345 peptide], in test [1], the half-life turned out to be 5.08 h and the half-life with HLA-DM is 1.75 h. Also, the Kd in test [2] was found to be 504 nM. For the same molecule, the Kd in test [3] was 714 nM.
